The target in this assay is T1, Gal80-Fpr1p fusion (yeast, UniProt P04387 1-435; P20081 1-114).
T1 construct: Encoded on a pRS416 backbone; also called pGP82; not shown: 2 HA tags derived from oligonucleotides GANG33/34 (DNA only)
T1 sequence (looked up): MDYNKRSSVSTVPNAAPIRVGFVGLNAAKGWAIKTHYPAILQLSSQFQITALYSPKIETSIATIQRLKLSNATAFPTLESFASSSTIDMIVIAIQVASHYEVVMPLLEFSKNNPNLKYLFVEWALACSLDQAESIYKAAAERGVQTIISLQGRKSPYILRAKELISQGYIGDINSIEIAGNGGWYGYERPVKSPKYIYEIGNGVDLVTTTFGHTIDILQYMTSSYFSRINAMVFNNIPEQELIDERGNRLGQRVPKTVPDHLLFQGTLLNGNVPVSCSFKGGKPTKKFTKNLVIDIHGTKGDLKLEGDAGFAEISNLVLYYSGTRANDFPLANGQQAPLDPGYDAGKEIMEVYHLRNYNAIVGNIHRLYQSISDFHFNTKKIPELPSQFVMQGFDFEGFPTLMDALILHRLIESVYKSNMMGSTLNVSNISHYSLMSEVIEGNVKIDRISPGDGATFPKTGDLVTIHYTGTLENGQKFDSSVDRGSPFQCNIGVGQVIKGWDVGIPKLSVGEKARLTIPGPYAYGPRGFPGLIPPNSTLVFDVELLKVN
Briefly: 80-Trap assay in yeast, HIS3 reporter growth without galactose. As for the experimental part: FIG. 4A illustrates FK506-dependent HIS3 reporter expression. Gal80-Fpr1 designates the Gal80-Fpr1p fusion. Myr-Cna1 designates the plasma membrane targeted Cna1p. Myr-Cmd1 is a plasma membrane targeted calmodulin and is used as a control. The nutrient agar plates used here lacked histidine, tryptophan and uracil and contained 0.5% galactose/3% glycerol/2% lactic acid as carbon source. FK506 was used at 0.25 μg/mL where indicated. Identical results were obtained using nutrient agar lacking galactose (data not shown). […] The nutrient agar plate lacked histidine, tryptophan and uracil and contained 3% glycerol/2% lactic acid as carbon source. Galactose was used at 0.5% where indicated. The lack of tryptophan and uracil are required for selection and maintenance in yeast of the two plasmids Gal80-Fpr1p and Myr-Cna1p, and the lack of histidine is to provide a selective assay for the protein-protein interaction that activates the HIS3 reporter gene carried on a yeast chromosome.
FK506 was used to trigger the interaction between a Gal80-Fpr1p fusion and plasma membrane-localized Myr-Can1p. […] Induction of the galactose-inducible HIS3 reporter gene was assayed. […] It has been reported that Fpr1p also interacts with Hom3p, the aspartokinase, in the absence of FK506 in a yeast two-hybrid assay (Alarcon and Heitman, 1997, Mol. Cell Bio., 17: 5968-5975).

B1: Myr-Hom3p (other, yeast)
chain: MGCTVSTQTIGDESDPMPMDFQPTSSHSNWVVQKFGGTSVGKFPVQIVDDIVKHYSKPDGPNNNVAVVCSARSSYTKAEGTTSRLLKCCDLASQESEFQDIIEVIRQDHIDNADRFILNPALQAKLVDDTNKELELVKKYLNASKVLGEVSSRTVDLVMSCGEKLSCLFMTALCNDRGCKAKYVDLSHIVPSDFSASALDNSFYTFLVQALKEKLAPFVSAKERIVPVFTGFFGLVPTGLLNGVGRGYTDLCAALIAVAVNADELQVWKEVDGIFTADPRKVPEARLLDSVTPEEASELTYYGSEVIHPFTMEQVIRAKIPIRIKNVQNPLGNGTIIYPDNVAKKGESTPPHPPENLSSSFYEKRKRGATAITTKNDIFVINIHSNKKTLSHGFLAQIFTILDKYKLVVDLISTSEVHVSMALPIPDADSLKSLRQAEEKLRILGSVDITKKLSIVSLVGKHMKQYIGIAGTMFTTLAEEGINIEMISQGANEINISCVINESDSIKALQCIHAKLLSERTNTSNQFEHAIDERLEQLKRLGI
modifications: N-myristoylation at the N-terminal signal
notes: Encoded on a pRS424 backbone under the ADH2 promoter; also called pGP130; not shown: CFP amplified from pDH3
For B1, the binding result was “binds”.

The values are drawn from patent US20050048477A1 (published 2005).
